Target: Aβ(1-40) peptide
Assay: cell-based or functional assay

Chain of Aβ(1-40) peptide (peptide, as listed by the source): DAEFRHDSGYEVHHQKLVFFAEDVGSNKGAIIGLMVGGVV

B1: ACA (control antibody; humanized 266 antibody, U.S. Pat. No. 7,195,761 B2) (antibody, INN chains, looked up, V domains shown)
VH: EVQLVESGGGLVQPGGSLRLSCAASGFTFSRYSMSWVRQAPGKGLELVAQINSVGNSTYYPDTVKGRFTISRDNAKNTLYLQMNSLRAEDTAVYYCASGDYWGQGTLVTVSS
VL: DVVMTQSPLSLPVTLGQPASISCRSSQSLIYSDGNAYLHWFLQKPGQSPRLLIYKVSNRFSGVPDRFSGSGSGTDFTLKISRVEAEDVGVYYCSQSTHVPWTFGQGTKVEIK
An inhibition of Aβ fibril formation (THT fluorescence), antibody 1.3 µM of 20% was found for B1 in this work.
